This assay concerns the target T1, GST-UFL1 (human, UniProt O94874 1-794).
T1 construct: UFL1, human, E3 ligase for ufmylation; purified recombinant GST-UFL1; The end of the GST tag is read from the printed name 'GST-UFL1'; source: E. coli BL21, purified (glutathione beads); not shown: GST, N-terminal, kept
T1 sequence (looked up): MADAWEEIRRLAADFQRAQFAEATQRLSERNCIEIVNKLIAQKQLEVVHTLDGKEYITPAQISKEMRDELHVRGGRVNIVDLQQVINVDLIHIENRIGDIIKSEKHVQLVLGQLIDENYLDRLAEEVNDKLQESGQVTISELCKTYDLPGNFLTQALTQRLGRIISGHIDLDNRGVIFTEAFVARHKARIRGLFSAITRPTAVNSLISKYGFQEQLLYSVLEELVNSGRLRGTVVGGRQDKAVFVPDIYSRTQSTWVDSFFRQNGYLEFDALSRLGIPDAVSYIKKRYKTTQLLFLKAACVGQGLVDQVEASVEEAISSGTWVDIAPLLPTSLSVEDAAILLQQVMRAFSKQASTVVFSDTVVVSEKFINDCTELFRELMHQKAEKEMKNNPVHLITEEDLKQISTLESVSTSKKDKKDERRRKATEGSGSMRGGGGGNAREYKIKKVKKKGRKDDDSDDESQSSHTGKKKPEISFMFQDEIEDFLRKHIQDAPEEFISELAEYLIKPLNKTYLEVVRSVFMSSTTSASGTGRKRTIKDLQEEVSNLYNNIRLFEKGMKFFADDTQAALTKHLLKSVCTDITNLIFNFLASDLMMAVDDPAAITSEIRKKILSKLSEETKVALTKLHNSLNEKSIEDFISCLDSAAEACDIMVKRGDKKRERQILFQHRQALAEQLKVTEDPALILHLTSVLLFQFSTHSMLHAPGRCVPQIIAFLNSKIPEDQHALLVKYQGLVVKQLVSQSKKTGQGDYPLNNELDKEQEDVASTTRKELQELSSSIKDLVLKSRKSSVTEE
Description: pull-down; GST pull-down: purified GST-UFL1 (20 ug) and substrate-Flag-His6 (20 ug) with Glutathione Sepharose 4B beads, 4 °C overnight, 20 mM Tris-Cl, 100 mM NaCl, 5 mM MgCl2, 1 mM EDTA, 1 mM DTT, 0.5% NP-40, 10 ug/mL BSA, pH 7.5; immunoblot. Conditions: both partners purified. On the technique in general: A western blot detects proteins with antibodies after separation by electrophoresis.

B1: MT1M-Flag-His6 (natural protein)
chain: not shown
notes: MT1M, metallothionein family, human; purified recombinant MT1M-Flag-His6; The ends of the tags are read from the printed name; source: E. coli BL21, purified (Ni-NTA beads); not shown: Flag, C-terminal, kept; His6, C-terminal, kept
With B1, the binding result was “binds”.

For the origin of these results see article PMC7352202, “An Integrative Synthetic Biology Approach to Interrogating Cellular Ubiquitin and Ufm Signaling” (International Journal of Molecular Sciences, 2020).
